Sequences and labels used below:
B1: soluble BCMA (B-cell maturation antigen) (receptor)
chain: MLQMAGQCSQNEYFDSLLHACIPCQLRCSSNTPPLTCQRYCNASVTNSVKGTNA
B2: APRIL (a proliferating ligand), IgG2a Fc conjugated binder (Fc fusion)
chain: SVLHLVPINATSKDDSDVTEVMWQPALRRGRGLQAQGYGVRIQDAGVYLLYSQVLFQDVTFTMGQVVSREGQGRQETLFRCIRSMPSHPDRAYNSCYSAGVFHLHQGDILSVIIPRARAKLNLSPHGTFLGFVKL

Common to all, as to assay: SPR
On the technique in general: Surface plasmon resonance follows binding to a sensor surface in real time, without labels.

The target of one assay is bb2121 (C11D5.3).
Assay [1] deals with B1.
Assay [2] concerns the target B1.

A word on the Kd: it is a measure of binding affinity in units of concentration. In general, koff refers to the first-order rate constant of dissociation.

On to B1, for which, in the assay with bb2121 (C11D5.3), the Kd came to 0.328 nM and the koff worked out at 0.00155 s⁻¹.

Molecule B2 came in with a dissociation rate constant (koff) in assay [1] of 0.00393 s⁻¹. In assay [2], this molecule yielded a Kd of 3.7 nM.

Source of the values: PMC10314698 (2023).
